The values that follow come from PMC2438614, “Antibodies Targeting the PfRH1 Binding Domain Inhibit Invasion of Plasmodium falciparum Merozoites” (PLoS Pathogens, 2008).

This series deals with the molecule itself. The experiment in a line: SEC; gel filtration of purified recombinant rRII-3; column and buffer not told in the text shown (Figure S3).

B1: recombinant RII-3 of P. falciparum reticulocyte binding protein homologue 1 (PfRH1), amino acids 500 to 833 (domain or fragment)
chain: LQIVQQKLLEIKQKKNDITHKVQLINHIYKNIHDEILNKKNNEITKIIINNIKDHKKDLQDLLLFIQQIKQYNILTDHKITQCNNYYKEIIKMKEDINHIHIYIQPILNNLHTLKQVQNNKIKYEEHIKQILQKIYDKKESLKKIILLKDEAQLDITLLDDLIQKQTKKQTQTQTQTQKQTLIQNNETIQLISGQEDKHESNPFNHIQTYIQQKDTQNKNIQNLLKSLYNGNINTFIDTISKYILKQKDIELTQHVYTDEKINDYLEEIKNEQNKIDKTIDDIKIQETLKQITHIVNNIKTIKKDLLKEFIQHLIKYMNERYQNMQQGYNNLTN
notes: region II amino acids 500 to 833 (334 residues); Cloned EcoRI/XhoI into pET24a(+); no cleavage of the tag is described; Primers are in Protocol S1; also called rRII-3; source: E. coli BL21-CodonPlus-RIL, purified (Ni-NTA, MonoS ion exchange); not shown: His6, C-terminal, kept
As for B1, the “stoichiometry N” value was determined as 3.
